Data published in the DeepSol protein solubility set.

Assay: soluble on expression in E. coli; label from the status in PepcDB or PDB records

Sequence	soluble on expression in E. coli
SLANIREIAKRAGISIATVSRHLNNTGYVSEDAREKIQKVVDELNYTPNALARAMFTKNSKTIGLMVPNISNPFFNQMASVIEEYAKNKGYTLFLCNTDDDKEKEKTYLEVLQSHRVAGIIASRSQCEDEYANIDIPVVAFENHILDNIITISSDNYNGGRMAFDHLYEKGCRKILHIKGPEVFEATELRYKGFLDGARAKDLEIDFIEFQHDFQVKMLEEDINSMKDIVNYDGIFVFNDIAAATVMRALKKRGVSIPQEVQIIGFDNSFIGELLYPSLTTINQPIEALAYTIIELLIKIINGEGVLIEDYIMEVKLIERETTISLKDEG	soluble
MLKEFKMIEAVAPDMLDVLQERFQILRNIYWMQPIGRRSLSETMGITERVLRTETDVLKQLNLIEPSKSGMTLTERGLEVYQGLELVMNQLLGMHQIEKEMTQYFGIQRCIVVAGDSDIQKKVLSDFGDVLTNTLNLLLPNGENTIAVMGGTTMAMVAENMGSLETEKRHNLFVPARGGIGEAVSVQANSISAVMANKTGGNYRALYVPEQLSRETYNSLLQEPSIQEVLTLISHANCVVHSIGRALHMAARRKMSDDEMVMLKQKNAVAESFGYFFDEEGKVVYKIPRIGLQLKNLQEIPYVVAIAGGKTKAKAIRAYMKNAPKQTWLITDEAAANEILKGVTL	soluble
MSDSASGYEYVYYDRQVGAVQKSPNLMNDPKGALFYTLDSVFGDPGDTTGWILYNDEMPADANRSNNATLGHTKGVIAFDIASSSALWLLHSWPKYASPSVPGVPTPLYGQTFLCLSLDLATAGKLAAQMALHQQPQVYLPRTGGLDHTSPLYALTQPLNASAPGDSDSLDFKTRGGVPFKVIAKNRKWGKDFWNDLVGPTLKADMYVETWIRGKIPPVLDSDGVHKTYDIKFIDLRKLGAPWAWPETQDHAKWGITTTDNWVCVGDINRMVTQEKRGGGTIAFQDPKLWKALCETDLIIPPPGKTDAQARAMIRKTHEPAELEHHHHHH	not soluble
MDGRPLNRTTRAVAMIAVTIPAHNEQALIGPCLQSIRVAAQHPALQGEAVEIHVALDRCTDQTGVIARAHGAITQEVCGGVGVARAAAASAAIARGAHWLACTDADTRVPPDWLMAQLACAADAFCGVVEVTDWRDHLSQTRAAFLASEIRHDGHPHVHGANLGMRTSAYLAAGGFSNASSSEDVALVAALEQAGMRIARLASPVVNTSARRSARASGGFADYLLRLEAALLAASPSLGLEHHHHHH	not soluble
MRTLRIGIVGLGGIAQKAWLPVLTNTAGWTLQGAWSPSRDKALRICESWRIPYVDSLANLASSCDAVFVHSSTASHYAVVSELLNAGVHVCVDKPLAENLRDAERLVALAAQKKLTLMVGFNRRFAPLYRELKTRLGTAASLRMDKHRTDSVGPHDLRFTLLDDYLHVVDTALWLAGGEARLASGTLLTSESGEMCYAEHHFSADKLQITTSMHRRAGSQRESVQAVTDGGLYDVTDMREWREERGQGILIKPIPSWQTTLEQRGFVGCARHFIDCVQNQTVPETAGEQAILAQRVVEALWRDAISE	not soluble
QSNAIWGLDRIDQRNLPLDRNYNANFDGFGVTAYVIDTGVNNNHEEFGGRSVSGYDFVDNDADSSDCNGHGTHVAGTIGGSQYGVAKNVNIVGVRVLSCSGSGTTSGVISGVDWVAQNASGPSVANMSLGGGQSTALDSAVQGAIQSGVSFMLAAGNSNADACNTSPARVPSGVTVGSTTSSDSRSSFSNWGSCVDLFAPGSQIKSAWYDGGYKTISGTSMATPHVAGVAALYLQENNGLTPLQLTGLLNSRASENKVSDTRGTTNKLLYSLADSGCEPDCGGP	soluble
MSFNTIIDWNSCTAEQQRQLLMRPAISASESITRTVNDILDNVKARGDEALREYSAKFDKTTVTALKVSAEEIAAASERLSDELKQAMAVAVKNIETFHTAQKLPPVDVETQPGVRCQQVTRPVASVGLYIPGGSAPLFSTVLMLATPASIAGCKKVVLCSPPPIADEILYAAQLCGVQDVFNVGGAQAIAALAFGTESVPKVDKIFGPGNAFVTEAKRQVSQRLDGAAIDMPAGPSEVLVIADSGATPDFVASDLLSQAEHGPDSQVILLTPAADMARRVAEAVERQLAELPRAETARQALNASRLIVTKDLAQCVEISNQYGPEHLIIQTRNARELVDSITSAGSVFLGDWSPESAGDYASGTNHVLPTYGYTATCSSLGLADFQKRMTVQELSKEGFSALASTIETLAAAERLTAHKNAVTLRVNALKEQA	soluble
MSLIKCVCLVIEEQEKLLLVQSRNREKYYFPGGKIDIGETYKQALQRELNEELQLDIPESSLIYMHTVVGEAYPQKNMKTELNCFYTTADIDWSTLVPSQEITDLQWIDKKDEHKIAPAVITWIEEQQHFKNIEREGHHHHHH	soluble
MSLLNENDIEQLTLQRLQSLGWEYRYGKDLPVHEGKFARGDLSGVVFVEQLREAVRKLNPQLPESAVDSVVKSATKSDIGDLVVRNQTFYKLLRDGVRVEYTQNGEQKIEMVRLVDFEHWGNNRFVAVNQLEIRSRKGGKRIPDIIGFVNGLPLVVFELKNPLRESADLLQAFNQFETYKDEIAELFVYNQALIISDGIVARLGSLSADFQRFTPWKVVDEKNKSARLYFDDELQSLLNGLMQPEDLLDYIRYFVLFERDSVGKTIKKIAAYHQYYGVNEAVDSTIWATSEKGDRRIGVMWHTQGSGKSISMLFYAGKLLAQPELKNPTIVVVTDRNDLDGQLFQTFSSGKDLIKQTPQQVEDRDQLRQLLAQNEVGGVFFTTIQKFALNEEESRFPILNERNNIIVISDEAHRSQYGFTQKLHNGKFQTGYARHLRDALPNASFIGFTGTPISLEDKDTQDVFGRYVSIYDLQDAVEDGATVPIVYDDARQIRLNKKDHDALFAEIDALLEEEPSTSLRLREKLLGSQERLIELAADFVQHFAKRNEVVDSKAMMVVSSRQICVDLYNQIIALHPEWHSDNINEGAIKIVMTGSASDTPEMQKHIYSKQEKQTLERRFKDPNDPLKVVIVRDMWLTGFDAPCCNTMYLDKPMKGHNLMQAIARVNRVFANKSRENGGLIVDYVGLAKELRAATQQYTNSTGKGQLAEDVQSVFFKMKEQLEFIRTLFATPIEGKTFDVQAALEKDNPNDLLMAIRFAANHILSLDQLSFDGKAHEQHWFNKKETEPRKKAFLKTAGLVKKGYMLCGTLAEVEPYNQEIAFYDAVRAILTKREQKGTGTNERQILLKKLVNQTVYSEGVIDLFDLLEKPQPQISLLSEEFLQTVKNSPTKNLWVSAMERYLASEIKVKSGTNLTLQKDFERRLKEALNQYHNHNLTVVEILDELFKMSQDFQERLALGKKLGLTKEELAFYEALSQNQSAKDLMGDEVLSKLAKEITETLRKSVTIDWQYKEAVRARIRLLVRRALQKYKYPPDKQEEAVTYVIKQAEEIAEDLTGLEGHHHHHH	soluble
MGSDKIHHHHHHMATSTTSTPHDAVFKQFLCHPDTARDFLEIHLPSTLRQICNLNTLRLESGSFIEEDLRPHYSDILWSLETSEGEGYIYVVIEHQSTPDAHMAFRLMRYAMAAMQRHLEAGHKTLPLVVPMLFYHGNRSPYPFSLCWLDEFADPVMARKLYATAFPLVDITVVPDDEIMRHRRVALLELIQKHIRQRDLMGLVEQLVALLVKGYANDTQLQSLFNYMMHTGDAARFNTFIRQVAMRIPQHKEKIMTIADRLRQEGHRNGLQQGKQEGQRLAALRIARSMLNDGFDRDTVLRVTGLAPADLASENH	not soluble
MAHHHHHHMKPEGAKGAVVSDDVGGDSANLAYCSDRITLLSRADIEAFTCCSNGAGGGGASNSENHNGGCGGLASEAQSVDPCSTLDTCIAALPMFLQSEALVLRRHEQQFRHHMKELVELTECITLLCDGSLRQHAAAVAGQPAEQSADAQRAESAALHRMLHRAEELERYVRAAAVERLRSAQRMVLAASTTKRREKVGRKSAVRPPKATK	not soluble
MAMTLVRRDARPMELTPFRTWSPFTLVDEVNRLFEEAFSDLVRPAAAYVAPADLYETDEALILEMAVPGMTPEDLEVSLEGNKLTIRGQVKPVADERVRRYYLQEMAHGSFVRTFTLPVEVDASGVKAEFRNGILRLTLPKVAEARARRIPIEVVQ	soluble
MATKPQDANTTSREAITSKADSPPRPTALIFDSGVGGLSVYQEIRQLLPDLHYIYAFDNVAFPYGEKSGEFIVERVLEIVTAVQQRHPLAIVVIACNTASTVSLPALRERFAFPVVGVVPAIKPAVRLTRNGVVGLLATRATVHASYTLDLIARFATDCKIELLGSSELVEVAETKLHGGVVPLEVLKKILHPWLSMREPPDTIVLGCTHFPLLTEELAQVLPEGTRMVDSGAAIARRTAWLISSQENVISSQDENIAYCMALDEDTDALLPVLQSYGFPKLQKLPI	not soluble
MTKQLVLFCDFDGTITENDNIIAIMKQFAPPEWEALKDDILAERISVQEGVGKMFSLLPSSLKGEIIDFLRRTTRLRAGFREFVAFTKERGIPLYIVSGGIDFFVYPLLEGLIEPERIFCNGSDFSGETIRITWPHACDGECQNGCGCCKPSLLRKLARPDGYHVVIGDSITDLAVAKQADYVMARDFLLQKCQELGLPHAPFATFFDVIDALQRMEVIV	soluble
MSTSQPREQFLLISALGPNPMELTTLLCRACVESRCAVVSSRLTRHGEFSALVLQISGSWDALARLEGSLPALTKRGDITLSMTRSNAHVTRAQALPYVAYVSAVYRPDILNELCQFFIDHNIELENLTCDTYQAPHTNTTMLNATITVTLPAGTQISWLRDQFLDFADALNLDALIEPWRPQHP	not soluble
MGSDKIHHHHHHMYNYPFENFDFIDFWDDDEYAMNEYIGAPPTEEMIEETERELGYKLPESYIWLMKQHNGGIPFNVCFPCDEPTSWADDHVAITGIMGVDKDKIYSLCGQLGSRFMIEEWGYPDIGVAICDCPSVGHDMIFLDYRECGPQGEPKVVHVDQEDDYYVTFLADNFEEFIRGLVNEEVFDTSEEDERMELEKVRNAAFSPLLSDLCAKCDHPVDTERWIRKISEEIVTDKGFFALHADERSYLLYDIQLWLYTNVYPDTTEEDYLSAYKKIIALDGEFSTGGYASDFVTDWLTRRKESGMVTCNDGILSMAAGTKEALLANRELISNKEQ	not soluble
MYAFVRFLEDNVCYALPVSCVRDFSPRSRLDFDNQKVYAVYRGPEELGAGPESPPRAPRDWGALLLHKAQILALAEDKSDLENSVMQKKIKIPKLSLNHVEEDGEVKDYGEEDLQLRHIKRPEGRKPSEVAHKSIEAVVARLEKQNGLSLGHSTCPEEVFVEASPGTEDMDSLEDAVVPRALYEELLRNYQQQQEEMRHLQQELERTRRQLVQQAKKLKEYGALVSEMKELRDLNRRLQDVLLLRLGSGPAIDLEKVKSECLEPEPELRSTFSEEANTSSYYPAPAPVMDKYILDNGKVHLGSGIWVDEEKWHQLQVTQGDSKYTKNLAVMIWGTDVLKNRSVTGVATKKKKDAVPKPPLSPHKLSIVRECLYDRIAQETVDETEIAQRLSKVNKYICEKIMDINKSCKNEERREAKYNLQ	soluble
MSQFFYIHPDNPQQRLINQAVEIVRKGGVIVYPTDSGYALGCKIEDKNAMERICRIRQLPDGHNFTLMCRDLSELSTYSFVDNVAFRLMKNNTPGNYTFILKGTKEVPRRLLQEKRKTIGMRVPSNPIAQALLEALGEPMLSTSLMLPGSEFTESDPEEIKDRLEKQVDLIIHGGYLGQKPTTVIDLTDDTPVVVREGVGDVKPFL	soluble
